# In patent US20170283458A1, “COLLAGEN-BINDING SYNTHETIC PEPTIDOGLYCANS FOR WOUND HEALING” (Symic Biomedical, Inc., priority 2009, published 2017):
# Ends that are not written are not given here.
# T1: collagen III (Homo sapiens, UniProt P02461)
# T1 construct: purchased Millipore
# T1 sequence (P02461 154-1221 limits assumed): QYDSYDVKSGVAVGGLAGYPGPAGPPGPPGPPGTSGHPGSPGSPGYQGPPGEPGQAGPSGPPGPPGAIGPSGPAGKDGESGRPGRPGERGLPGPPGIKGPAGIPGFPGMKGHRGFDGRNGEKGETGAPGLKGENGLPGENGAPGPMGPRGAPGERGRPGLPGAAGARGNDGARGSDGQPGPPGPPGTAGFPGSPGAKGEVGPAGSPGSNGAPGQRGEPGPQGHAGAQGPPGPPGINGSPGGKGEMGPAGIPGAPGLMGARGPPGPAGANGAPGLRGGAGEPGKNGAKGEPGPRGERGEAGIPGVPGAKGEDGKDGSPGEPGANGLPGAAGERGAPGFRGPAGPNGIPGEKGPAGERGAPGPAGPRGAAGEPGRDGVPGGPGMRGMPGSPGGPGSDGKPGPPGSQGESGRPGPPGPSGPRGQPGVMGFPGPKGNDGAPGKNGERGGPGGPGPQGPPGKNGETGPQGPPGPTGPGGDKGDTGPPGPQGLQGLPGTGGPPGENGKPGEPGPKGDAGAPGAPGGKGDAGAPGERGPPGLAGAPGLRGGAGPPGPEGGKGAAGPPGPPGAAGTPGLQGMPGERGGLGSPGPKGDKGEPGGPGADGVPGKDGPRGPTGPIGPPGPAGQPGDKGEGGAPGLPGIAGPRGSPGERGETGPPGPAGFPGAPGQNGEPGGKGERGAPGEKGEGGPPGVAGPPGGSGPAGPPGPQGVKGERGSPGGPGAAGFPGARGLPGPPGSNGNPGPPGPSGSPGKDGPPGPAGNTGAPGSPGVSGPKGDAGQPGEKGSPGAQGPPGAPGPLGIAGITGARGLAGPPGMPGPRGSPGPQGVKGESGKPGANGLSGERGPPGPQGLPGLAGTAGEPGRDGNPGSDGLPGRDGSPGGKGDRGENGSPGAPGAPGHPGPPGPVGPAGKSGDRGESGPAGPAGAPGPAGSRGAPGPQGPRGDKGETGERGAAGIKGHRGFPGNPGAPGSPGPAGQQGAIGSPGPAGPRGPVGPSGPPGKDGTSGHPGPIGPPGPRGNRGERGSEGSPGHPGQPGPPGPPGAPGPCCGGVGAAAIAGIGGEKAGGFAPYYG
# T2: collagen type III (Homo sapiens, UniProt P02461)
# T2 construct: purchased Millipore
# T2 sequence (P02461 154-1221 limits assumed): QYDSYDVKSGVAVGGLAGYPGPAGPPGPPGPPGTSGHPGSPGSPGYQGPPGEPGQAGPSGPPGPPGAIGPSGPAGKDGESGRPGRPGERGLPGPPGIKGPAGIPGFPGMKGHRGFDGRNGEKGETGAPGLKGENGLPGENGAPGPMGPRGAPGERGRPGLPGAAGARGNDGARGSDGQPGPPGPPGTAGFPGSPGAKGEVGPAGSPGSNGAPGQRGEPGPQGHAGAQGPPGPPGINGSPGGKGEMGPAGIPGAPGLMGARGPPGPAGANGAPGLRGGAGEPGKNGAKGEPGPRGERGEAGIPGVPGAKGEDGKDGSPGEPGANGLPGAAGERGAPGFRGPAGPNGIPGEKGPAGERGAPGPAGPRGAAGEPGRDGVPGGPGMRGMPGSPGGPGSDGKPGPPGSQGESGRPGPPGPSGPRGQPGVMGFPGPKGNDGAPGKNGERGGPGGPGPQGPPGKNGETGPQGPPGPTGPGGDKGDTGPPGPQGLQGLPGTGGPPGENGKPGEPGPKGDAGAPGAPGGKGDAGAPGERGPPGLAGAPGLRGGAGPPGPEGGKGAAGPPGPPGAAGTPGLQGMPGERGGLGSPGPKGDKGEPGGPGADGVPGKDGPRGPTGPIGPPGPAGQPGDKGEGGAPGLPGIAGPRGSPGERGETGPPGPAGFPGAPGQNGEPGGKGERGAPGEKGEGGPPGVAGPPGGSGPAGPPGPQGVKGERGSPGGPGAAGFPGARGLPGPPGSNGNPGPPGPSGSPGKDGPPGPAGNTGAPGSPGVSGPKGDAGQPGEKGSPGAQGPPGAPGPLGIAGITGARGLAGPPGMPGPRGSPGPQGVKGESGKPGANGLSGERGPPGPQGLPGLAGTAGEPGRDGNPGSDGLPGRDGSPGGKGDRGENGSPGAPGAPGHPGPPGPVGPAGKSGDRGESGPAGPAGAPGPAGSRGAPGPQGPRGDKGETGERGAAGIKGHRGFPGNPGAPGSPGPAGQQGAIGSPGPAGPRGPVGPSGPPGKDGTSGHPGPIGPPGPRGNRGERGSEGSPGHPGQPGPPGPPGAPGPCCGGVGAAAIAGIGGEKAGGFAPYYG
# B1: decorin: proteoglycan known to influence collagen fibrillogenesis (protein, UniProt P07585 31-359, looked up)
# Decorin: DEASGIGPEVPDDRDFEPSLGPVCPFRCQCHLRVVQCSDLGLDKVPKDLPPDTTLLDLQNNKITEIKDGDFKNLKNLHALILVNNKISKVSPGAFTPLVKLERLYLSKNQLKELPEKMPKTLQELRAHENEITKVRKVTFNGLNQMIVIELGTNPLKSSGIENGAFQGMKKLSYIRIADTNITSIPQGLPPSLTELHLDGNKISRVDAASLKGLNNLAKLGLSFNSISAVDNGSLANTPHLRELHLDNNKLTRVPGGLAEHKYIQVVYLHNNNISVVGSSDFCPPGHNTKKASYSGVSLFSNPVQYWEIQPSTFRCVYVRSAIQLGNYK
# Key:
# collagen III = biological target: T1, collagen III; experiment: Cryo-SEM measurements on collagen III, void space; type: biochemical; conditions: 1 mg/mL collagen (90% collagen III), 1:1 collagen:peptidoglycan
# Method: Gels for cryo-SEM were formed, as in EXAMPLE 16, directly on the SEM stage and incubated at 37° C. overnight with the following modifications. The collagen concentration was 1 mg/mL (90% collagen III, 10% collagen I). The collagen:DS ratio was 1:1 and the collagen:peptidoglycan ratio was 1:1. The images were recorded as in EXAMPLE 21. The ratio of void volume to fibril volume was measured using a variation of the method in EXAMPLE 21.
# collagen type III = biological target: T2, collagen type III; experiment: Viscoelastic characterization of collagen III containing gels; type: biochemical; conditions: 1.5 mg/mL collagen (90% collagen III); 1:1 and 5:1 molar ratios
# Method: Gels containing type III collagen were prepared as in EXAMPLE 16 with the following modifications: treated and untreated gel solutions were prepared using a collagen concentration of 1.5 mg/mL (90% collagen III (Millipore), 10% collagen I), 200 μL samples were pipetted onto 20 mm diameter wettable surfaces of hydrophobic printed slides. These solutions were allowed to gel at 37° C. for 24 hours. Gels were formed from collagen alone, collagen treated with dermatan sulfate (1:1 and 5:1 molar ratio), and collagen treated with the collagen III-binding peptides alone (GSIT and KELN, 5:1 molar ratio) served as controls.
# [1] = test system: Human aortic smooth muscle cells; experiment: Collagen remodeling: hydroxyproline content in medium of cell-seeded collagen gels; type: cell-based; conditions: vs collagen alone; cultures up to 30 days
# Method: Following a method by Grassl, et al. (Grassl, et al., Journal of Biomedical Materials Research 2002, 60, (4), 607-612), which is herein incorporated in its entirety, collagen gels with or without synthetic PG mimics were formed as described in EXAMPLE 16. Human aortic smooth muscle cells (Cascade Biologics, Portland, Oreg.) were seeded within collagen gels by adding 4×10^6 cells/mL to the neutralized collagen solution prior to incubation. The cell-collagen solutions were pipetted into an 8-well Lab-Tek chamber slide and incubated in a humidified 37° C. and 5% CO2 incubator. After gelation, the cell-collagen gels will be covered with 1 mL Medium 231 as prescribed by Cascade. Every 3-4 days, the medium was removed from the samples and the hydroxyproline content measured by a standard hydroxyproline assay (Reddy, 1996).
# To measure degraded collagen in the supernatant medium, the sample was lyophilized, the sample hydrolyzed in 2M NaOH at 120° C. for 20 min. After cooling, free hydroxyproline was oxidized by adding chloramine-T (Sigma) and reacting for 25 min at room temperature. Ehrlich's aldehyde reagent (Sigma) was added and allowed to react for 20 min at 65° C. and followed by reading the absorbance at 550 nm on an M-5 spectrophotometer (Molecular Devices). […] Cultures were incubated for up to 30 days and three samples of each treatment measured. […]
# collagen = biological target: T3, collagen (Bos taurus, UniProt P02453+P02465); experiment: Fibrillogenesis turbidity assay (absorbance at 313 nm); type: biochemical; conditions: 1:1 collagen:additive molar ratio, vs collagen alone
# T3 construct: purchased Inamed, Freemont, Calif; Nutragen
# Method: (§1) Gels were made with Nutragen collagen (Inamed, Freemont, Calif.) at a final concentration of 4 mg/mL collagen. Nutragen stock is 6.4 mg/mL in 10 mM HCl. Gel preparation was performed on ice, and fresh samples were made before each test. The collagen solution was adjusted to physiologic pH and salt concentration, by adding appropriate volumes of 10×PBS (phosphate buffered saline), 1×PBS, and 1M NaOH. For most experiments, samples of DS, decorin, DS-SILY, or DS-Dc13 were added at a 10:1 collagen:treatment molar ratio by a final 1×PBS addition (equal volumes across treatments) in which the test samples were dissolved at appropriate concentrations. In this way, samples are constantly kept at pH 7.4 and physiologic salt concentration. Collagen-alone samples received a 1×PBS addition with no sample dissolved. Fibrillogenesis will be induced by incubating neutralized collagen solutions at 37° C. overnight in a humidified chamber to avoid dehydration. Gel solutions with collagen:treatment molar ratios of other than 10:1 were prepared similarly.
# Collagen fibrillogenesis was monitored by measuring turbidity related absorbance at 313 nm providing information on rate of fibrillogenesis and fibril diameter. Gel solutions were prepared as described in EXAMPLE 16 (4 mg/mL collagen, 10:1 collagen:treatment, unless otherwise indicated) and 50 uL/well were added at 4° C. to a 384-well plate. The plate was kept at 4° C. for 4 hours before initiating fibril formation. A SpectraMax M5 at 37° C. was used to measure absorbance at 313 nm at 30 s intervals for 6 hours.
# A fibrillogenesis assay as described for DS-SILY, EXAMPLE 19, performed with the conjugate DS-Dc13.
# collagen I = biological target: T4, collagen I (Bos taurus, UniProt P02453+P02465); experiment: Cryo-SEM measurements on collagen I, fibril diameter; type: biochemical; conditions: 4 mg/mL collagen, 10:1 collagen:treatment, cryo-SEM 20,000×
# T4 construct: purchased Inamed, Freemont, Calif; Nutragen
# Method: as §1
# Gels for cryo-SEM were formed, as in EXAMPLE 16, directly on the SEM stage and incubated at 37° C. overnight. The stages were then secured in a cryo-holder and plunged into liquid nitrogen slush. Samples were then transferred to a Gatan Alto 2500 pre-chamber cooled to −170° C. under vacuum. A free-break surface was created with a cooled scalpel, and each sample evaporated under sublimation conditions for 20 min. The sample was coated by platinum sputter coating for 120 s. Samples were transferred to the cryo-stage at −130° C. and regions with similar orientation were imaged for comparison across treatments. Analysis of the images was performed to determine the fibril diameter distribution, presented in histograms adjacent the corresponding image in FIG. 14, and average fibril diameter, FIG. 17 an 18;. Fibril diameter was calculated using ImageJ software (NIH) measuring individual fibrils by hand (drawing a line across fibrils and measuring its length after properly setting the scale). At least 45 independent fibril measurement were recorded for average fibril diameter calculations.
# Human dermal fibroblasts = experiment: TGF-β1 production by human dermal fibroblasts (ELISA); type: cell-based; conditions: 1.4 μM treatment, 48 hours
# Method: Human dermal fibroblasts (Cascade Biologics) were seeded onto 96-well tissue culture polystyrene plates at a seeding density of 1.83×10^3 cells/well. Cells adhered overnight and cell medium was aspirated. 100 μL/well of cell medium containing a final concentration of 1.4 μM treatment delivered from a concentrated solution of treatment in 1×PBS was added to the cells. After 48 hours, cell medium was removed and frozen at −80 C until further testing. TGF-β1 was measured by ELISA using a kit and protocol from R&D Systems.
# [2] = test system: Human coronary artery smooth muscle cells (HCA SMC); experiment: Gel compaction by smooth muscle cells in collagen gels; type: cell-based; conditions: Days 3 and 5
# Method: Human coronary artery smooth muscle cells (HCA SMC) (Cascade Biologics) were cultured in growth medium (Medium 231 supplemented with smooth muscle growth factor). Cells from passage 3 were used for all experiments. Differentiation medium (Medium 231 supplemented with 1% FBS and 1× pen/strep) was used for all experiments unless otherwise noted.
# Collagen gels were prepared with each additive as described with the exception that the 1×PBS example addition was omitted to accommodate the addition of cells in media. After incubating on ice for 30 min, HCA SMCs in differentiation medium were added to the gel solutions to a final concentration of 1×10^6 cells/mL. Gels were formed in quadruplicate in 48-well non-tissue culture treated plates (Costar) for 6 hrs before adding 500 μL/well differentiation medium. Gels were freed from the well edges after 24 hrs. Medium was changed every 2-3 days and images for compaction were taken at the same time points using a Gel Doc System (Bio-Rad). The cross-sectional area of circular gels correlating to degree of compaction was determined using ImageJ software (NIH). Gels containing no cells were used as a negative control and cells in collagen gels absent additive were used as a positive control. […] By day 10 all gels had compacted to approximately 10% of the original gel area, and differences between additives were small.
# T4 sequence (P02453 162-1217 limits assumed): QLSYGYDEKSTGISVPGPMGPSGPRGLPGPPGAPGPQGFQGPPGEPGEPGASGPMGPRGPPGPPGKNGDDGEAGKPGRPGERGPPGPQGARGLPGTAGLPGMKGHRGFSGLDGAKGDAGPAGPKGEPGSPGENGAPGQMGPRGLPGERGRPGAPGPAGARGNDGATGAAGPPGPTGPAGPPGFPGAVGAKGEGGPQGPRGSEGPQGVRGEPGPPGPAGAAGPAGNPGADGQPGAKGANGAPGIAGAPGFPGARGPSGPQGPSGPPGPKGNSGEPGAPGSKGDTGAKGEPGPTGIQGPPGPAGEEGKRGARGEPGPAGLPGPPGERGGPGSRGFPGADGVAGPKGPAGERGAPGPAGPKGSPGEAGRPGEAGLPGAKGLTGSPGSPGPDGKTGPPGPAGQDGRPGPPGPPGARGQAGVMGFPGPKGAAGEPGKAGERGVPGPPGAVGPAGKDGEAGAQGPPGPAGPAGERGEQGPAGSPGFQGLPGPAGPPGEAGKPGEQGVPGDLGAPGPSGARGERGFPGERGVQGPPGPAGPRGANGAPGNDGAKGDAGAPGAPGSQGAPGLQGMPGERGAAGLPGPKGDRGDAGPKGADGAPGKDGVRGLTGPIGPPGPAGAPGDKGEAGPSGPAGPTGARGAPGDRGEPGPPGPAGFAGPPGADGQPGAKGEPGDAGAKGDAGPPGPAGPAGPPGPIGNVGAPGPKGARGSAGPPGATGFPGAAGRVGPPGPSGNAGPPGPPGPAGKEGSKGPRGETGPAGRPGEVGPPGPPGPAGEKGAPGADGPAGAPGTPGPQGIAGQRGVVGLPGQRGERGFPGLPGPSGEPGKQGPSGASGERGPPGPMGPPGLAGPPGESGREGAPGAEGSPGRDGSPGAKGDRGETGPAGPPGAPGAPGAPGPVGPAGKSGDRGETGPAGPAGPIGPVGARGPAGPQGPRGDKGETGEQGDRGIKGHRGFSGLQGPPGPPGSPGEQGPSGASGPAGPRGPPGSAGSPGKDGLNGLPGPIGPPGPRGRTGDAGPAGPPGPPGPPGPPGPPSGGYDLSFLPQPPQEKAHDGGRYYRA
# T4 sequence (P02465 80-1117 limits assumed): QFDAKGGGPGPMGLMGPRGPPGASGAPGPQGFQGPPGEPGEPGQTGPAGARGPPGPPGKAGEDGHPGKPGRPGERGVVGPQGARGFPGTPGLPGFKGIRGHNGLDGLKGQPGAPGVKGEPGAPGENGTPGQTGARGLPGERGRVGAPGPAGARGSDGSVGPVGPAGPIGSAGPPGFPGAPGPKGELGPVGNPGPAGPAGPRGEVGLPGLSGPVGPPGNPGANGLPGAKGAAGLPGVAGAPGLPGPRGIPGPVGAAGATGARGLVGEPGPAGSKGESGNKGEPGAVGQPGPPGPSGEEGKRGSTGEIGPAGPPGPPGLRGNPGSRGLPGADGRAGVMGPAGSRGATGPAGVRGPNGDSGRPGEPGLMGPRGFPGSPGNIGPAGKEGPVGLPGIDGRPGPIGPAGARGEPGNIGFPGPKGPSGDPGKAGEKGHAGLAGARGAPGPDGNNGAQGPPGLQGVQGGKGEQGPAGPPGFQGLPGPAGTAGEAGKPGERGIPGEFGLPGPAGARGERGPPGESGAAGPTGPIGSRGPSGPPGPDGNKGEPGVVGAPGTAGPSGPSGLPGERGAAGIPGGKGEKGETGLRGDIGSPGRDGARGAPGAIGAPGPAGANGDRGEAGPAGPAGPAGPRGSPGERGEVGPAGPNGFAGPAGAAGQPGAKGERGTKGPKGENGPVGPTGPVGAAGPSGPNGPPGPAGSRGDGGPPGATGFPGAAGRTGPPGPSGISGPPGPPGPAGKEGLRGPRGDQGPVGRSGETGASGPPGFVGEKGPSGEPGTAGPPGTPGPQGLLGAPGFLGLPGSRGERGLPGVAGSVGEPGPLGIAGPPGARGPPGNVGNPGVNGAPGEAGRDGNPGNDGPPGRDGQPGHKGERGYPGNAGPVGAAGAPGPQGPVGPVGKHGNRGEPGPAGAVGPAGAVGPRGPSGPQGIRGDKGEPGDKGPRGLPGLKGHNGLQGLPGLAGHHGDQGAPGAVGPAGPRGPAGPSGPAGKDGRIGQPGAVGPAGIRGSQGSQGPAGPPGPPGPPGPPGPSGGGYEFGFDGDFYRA
# T3 sequence (P02453 162-1217 limits assumed): as the sequence (P02453 162-1217 limits assumed) above
# T3 sequence (P02465 80-1117 limits assumed): as the sequence (P02465 80-1117 limits assumed) above
molecule,measurement,setting,value
"DS-GSIT: dermatan sulfate conjugated to GSIT peptide GSITTIDVPWNVGC (also: dermatan sulfate conjugate, site not given here)",void space,collagen III,decrease void space (increase fibril diameter and branching)
same,viscoelastic properties of gels formed with collagen type III,collagen type III,can influence the viscoelastic properties of gels formed with collagen type III
"DS-KELN: dermatan sulfate conjugated to KELN peptide KELNLVYTGC (also: dermatan sulfate conjugate, site not given here)",void space,collagen III,decrease void space (increase fibril diameter and branching)
same,viscoelastic properties of gels formed with collagen type III,collagen type III,can influence the viscoelastic properties of gels formed with collagen type III
SYIRIADTNITGC [Dc13],collagen degradation measured by hydroxyproline content in cell medium,[1],greater collagen degradation compared to collagen alone
same,effect on fibrillogenesis,collagen,little effect on fibrillogenesis compared to collagen alone
B1,average fibril diameter,collagen I,significant decrease in average fibril diameter
same,TGF-β1 in cell medium,Human dermal fibroblasts,significantly decreased TGF-β1
same,gel compaction at early time points,[2],significantly compacted more than gels made of collagen alone or collagen with dermatan sulfate
